The values below come from patent US8728980B2, “Peptide microarray and method of use” (The Regents of the University of California, priority 2011, dated 2014).

Non-standard residues stand in square brackets, D forms with d. Primed or numbered codes have the meaning given here. No end group written: not given here. Me3 = trimethylation of the lysine side chain; Me3(3) = trimethyl (trimethylated lysine); Lys(Me3) = C[N+](C)(C)CCCC[C@H](N)C(=O)O

In assay [1] the target is T1, Polycomb protein chromodomain (Drosophila melanogaster, UniProt P26017).
T1 construct: The chromodomain (a.a. 1-90) of Polycomb protein was expressed as GST-tagged fusion protein; made in house
T1 sequence (P26017 1-90): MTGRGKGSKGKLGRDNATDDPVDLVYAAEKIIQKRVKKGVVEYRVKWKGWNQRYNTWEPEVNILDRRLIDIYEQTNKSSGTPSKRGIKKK
In words: Peptide microarray binding of GST-tagged Polycomb chromodomain. Further details: dose or concentration left out as unconfirmed. To be noted: Binder if at least two of three spots pass p-value cutoff 0.001 from background. The text has this: There are a total of 46 histone peptide sequences (9 a.a. long) with a single lysine-trimethylation site which are conserved between the human and fruit fly H2, H3 and H4 proteins (Table II). These were screened for Polycomb protein chromodomain binding by peptide microarray. Each peptide sequence was screened as triplets, and the fluorescence intensity was quantified with background subtraction individually for each spot from the microarray images by ImageJ^9 and the whole data set was fit to a mixed Gaussian distribution model (FIG. 8, Table III).
Twelve out of the 46 sequences were identified as positive binders under these criteria. Ten of these microarray-identified binders also yielded high mutation matrix score in an independent prediction (Table IV).
The chromodomain (a.a. 1-90) of Polycomb protein was expressed as GST-tagged fusion protein and purified as described in [65]. The purity of the protein was examined by SDS-PAGE electrophoresis followed by both Coomassie staining and western blot using an Anti-GST-HRP conjugate (Santa Cruz Biotechnology). The concentration of purified protein was determined by BCA assay (Amresco). A total of 46 trimethylated histone peptides were synthesized by Sigma Aldrich (desalted, mass spectrometry checked). The peptides were then printed as triplets onto glass slides (ArrayIt), together with a Cy3 marker and an anti-GST (mouse monoclonal) antibody (Thermo) as references.
The peptide microarray was rinsed with TBST buffer (25 mM Tris, 125 mM NaCl, 0.05% Tween-20, pH 8) followed by blocking with 5% non-fat milk in TBST (room temperature 1 hour or 4° C. overnight). The slide was then incubated at 4° C. with Polycomb-GST fusion protein at a final concentration of […] in 5% non-fat milk/TBST for 6 hours. After washing three times for 10 minutes each with TBST, the slide was incubated with an anti-GST mouse monoclonal IgG antibody (Thermo) at a final concentration of 1 μg/mL in 5% non-fat milk/TBST and shaken gently for 1 hour at room temperature. A secondary anti-mouse IgG Dylight-488 conjugated antibody (Thermo) was added to a final concentration of 0.1 μg/mL after three more cycles of 10 minutes washing with TBST. The slide was shaken for 1 hr at room temperature and washed three times with TBST.
The dried microarray slides were scanned using a Hamamatsu NanoZoomer 2.0HT Slide Scanning System (Neuroscience Light Microscopy Facility, UCSD). Data quantification were processed using the microarray processing software ImageJ^9, where the fluorescent intensity of a microarray spot was defined as its own intensity minus the background intensity around it on the scanned image.

In the next assay the target is T2, Polycomb (Drosophila melanogaster, UniProt P26017).
T2 sequence (P26017 1-390): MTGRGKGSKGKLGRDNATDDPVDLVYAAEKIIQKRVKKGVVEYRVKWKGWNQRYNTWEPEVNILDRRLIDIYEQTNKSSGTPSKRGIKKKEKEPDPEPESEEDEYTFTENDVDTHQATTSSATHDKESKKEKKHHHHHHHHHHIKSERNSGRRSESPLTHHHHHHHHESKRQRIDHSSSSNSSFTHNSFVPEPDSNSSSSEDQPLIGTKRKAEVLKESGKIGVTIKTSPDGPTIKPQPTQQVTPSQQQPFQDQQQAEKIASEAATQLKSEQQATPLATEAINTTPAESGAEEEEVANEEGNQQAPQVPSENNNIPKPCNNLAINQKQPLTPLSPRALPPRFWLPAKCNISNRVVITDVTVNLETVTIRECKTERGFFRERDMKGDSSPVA
To be noted: from reference 2; read-out: Experimental dissociation constant; cited from earlier work.

The target of another assay is Abl1 SH3 domain (Homo sapiens, UniProt P00519). In words: Peptide microarray binding of GST-Abl SH3 fusion protein (Cy3 fluorescence). The following applies: peptides printed at 1 mg/ml in triplicates, GST-Abl SH3 5 μM. The procedure: The GST-tagged Abl SH3 domain fusion protein was purified as previously described (12). Protein concentration was determined using the Bradford Assay (Bio-Rad). The purity of the fusion protein was checked by electrophoresis on SDS-PAGE gel and coomassie blue staining. The fusion protein was also subjected to electrophoresis on SDS-PAGE gel, followed by Western blot using a horseradish peroxidase-conjugated anti-GST antibody (Santa Cruz Biotechnology) and the SuperSignal West chemiluminescent substrate (Pierce).
All peptides were synthesized by Sigma-Aldrich. The peptides were printed onto glass slides in triplicates by ArrayIt Corporation. […]
The peptide microarray was processed by the InnoScan 710 laser scanner (ArrayIt Corporation). Cy-3 fluorescence was detected using the 532 nm laser at 3 um resolution. The resulted microarray image was analyzed by the microarray image process software Mapix2.8.2 (ArrayIt Corporation). The fluorescent intensity of a microarray spot was defined as its own intensity minus the background intensity around it, as determined from the scanned image.
To print peptide microarrays, method of immobilizing the peptides on the glass surface, as well as the amount of peptide printed, needed to decide. […] Binding of GST-Abl SH3 to peptides generated a Cy3 fluorescent signal that was recorded on a laser scanner. […]

Chain of Abl1 SH3 domain (P00519 61-121 limits assumed): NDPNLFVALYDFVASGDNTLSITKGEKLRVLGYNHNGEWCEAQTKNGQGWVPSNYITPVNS

As for “LATKAARKS [template histone H3 peptide L20 to S28 with trimethylated Lys27, reference compound]”, the “Array Verification” value in assay [1] is recorded as “Binder”. Further, the Kd on Polycomb was 5 ± 1 µM. As for “PPDPPPPPLP [10-residue peptide of SHIP2_HUMAN 1050-1059]”, the “Average fluorescence intensity (high printing concentration)” value with Abl1 SH3 domain turned out to be 58833. For RNDEELNKL (RNDEELNK(Me3(3))L), the “Array Verification” value in assay [1] was “NonBinder”. For “YTEHAKRKT (YTEHAKRK(Me3)T) [9-residue histone peptide, H4_DROME, trimethylated lysine site 79]”, the “Array Verification” value in assay [1] is listed as “NonBinder”.

Take “LARRGGVKR (LARRGGVK(Me3(3))R) [9-residue histone peptide, H4_DROME, trimethylated lysine site 44]”: in assay [1], the “Array Verification” value is “NonBinder”. In the case of “RTKQTARKS (also: trimethylated lysine, site not given here) [9-residue histone peptide, H3_DROME, trimethylated lysine site 9]”, the “Array Verification” value in assay [1] is given as “Binder”. Same read-out and setting: then GRIHRHLKS (GRIHRHLK(Me3(3))S), with “Binder”; and “PSTGGVKKP (also: trimethylated Lys, site not given here) [9-residue histone peptide, H33_DROME, trimethylated lysine site 37]”, with “NonBinder”; and “NAARDNKKT (also: trimethylated Lys, site not given here)”, with “NonBinder”. Regarding “IHKSLIGKK (not fully specified (residue 8); also: trimethylated lysine, site not given here)”, the “Array Verification” value in assay [1] is on record as “NonBinder”. Same read-out and setting: then “TGGKAPRKQ (also: trimethylated Lys, site not given here) [9-residue histone peptide, H3_DROME, trimethylated lysine site 18]”, with “NonBinder”; and ELAGNASKD (ELAGNASK(Me3(3))D), with “NonBinder”. On the same count and under the same terms, the same measure for “KGGKGLGKG (not fully specified (residue 8); also: trimethylated lysine, site not given here) [9-residue histone peptide, H4_DROME, trimethylated lysine site 12]”: “NonBinder”.

For SRLAHYNKR (SRLAHYNK(Me3(3))R), in assay [1], the “Array Verification” value was “NonBinder”. The same measure, in the same setting: the same measure for LLPGELAKH (LLPGELAK(Me3(3))H): “NonBinder”; for “APSTGGVKK (also: trimethylated Lys, site not given here) [9-residue histone peptide, H33_DROME, trimethylated lysine site 36]”: “NonBinder”; for “GNAARDNKK (also: trimethylated Lys, site not given here)”: “NonBinder”. Still for that read-out and setting: the same measure for QAVLLPKKT (QAVLLPKK(Me3)T): “NonBinder”; for EELDSLIKA (EELDSLI[Lys(Me3)]A): “NonBinder”.

For the sequence “VTYTEHAKR (VTYTEHAK(Me3(3))R) [9-residue histone peptide, H4_DROME, trimethylated lysine site 77]”, the “Array Verification” value in assay [1] is reported as “NonBinder”. On the same count and under the same terms, then “GNASKDLKV (not fully specified (residue 8); also: trimethylated lysine, site not given here)”, with “NonBinder”. For “DNIQGITKP (DNIQGIT[Lys(Me3)]P) [9-residue histone peptide, H4_DROME, trimethylated lysine site 31]”, the “Array Verification” value in assay [1] is recorded as “NonBinder”. On to “MAGGKAGKD (not fully specified (residue 8); also: trimethylated lysine, site not given here)”, for which the “Array Verification” value in assay [1] is “NonBinder”. For the sequence “GLGKGGAKR [9-residue histone peptide, H4_DROME, trimethylated lysine site 16]”, the “Array Verification” value in assay [1] is on record as “NonBinder”.

Turning to “EETRGVLKV (EETRGVL[Lys(Me3)]V) [9-residue histone peptide, H4_DROME, trimethylated lysine site 59]”, in assay [1], the “Array Verification” value was “NonBinder”.
